B1: TPR t1 (parent)
chain: GACCAAUCUGCCCUCAGAGCUCGAGAACAUCUUCGGAUGCAGAGGAGGCAGGCUUCGGUGGCGCGAUAGCGCCAACGUCCUCAACCUCCAAUGCAUCCCACCACAUGAUGAUGCCUGAAGAGCCUUGGUUUUUUG

Variants of: B1
Test: polymerase ribozyme fitness, log enrichment relative to wild type (log ratio); higher = more active; in vitro selection for triplet polymerase activity
Summary of the method: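 Fitness compares each genotype's enrichment to that of the wild type on a logarithmic scale, averaging replicates with inverse-variance weights. The logarithm is base 2. Enrichment came from Illumina sequencing of input and output libraries after one triplicate round of in vitro selection, which included frozen incubation at −7 °C, of PCR-built, transcribed mutant libraries of each subunit of a heterodimeric triplet polymerase ribozyme. Only genotypes with ≥10 input reads and ≥1 read per output were kept.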

Variant	polymerase ribozyme fitness (log ratio)
GACCAAUCUGCCCUCAGAGUUCGAGAACAUCUUCGGAUGCAGAGGAGGCAGGCUUCGGUGGCGCGAUAGCGCCAACGUCCUCAAUCUCCAAUGCAUCCCACCACAUGAUGAUGCCUGAAGAGCCUUGGUUUUUUG	-2.85
GACCAAUCUGCCCUCAGAGUUCGAGAACAUCUUCGGAUGCAGAGGAGGCAGGCUUCGGUGGCGCGAUAGCGCCAACGUCCUCAACCUCCAAUGCAUCCCACCACAUGAUGAUGCUUGAAGAGCCUUGGUUUUUUG	-1.73
GACCAAUCUGCCCUCAGAGUUCGAGAACAUCUUCGGAUGCAGAGGAGGCAGGCUUCGGUGGCGCGAUAGCGCAAACGUCCUCAACCUCCAAUGCUUCCCACCACAAGAUGAUGCCUGAAGAACCUUGGUUUUUUG	-4.57
GACCAAUCUGCCCUCAGAGUUCGAGAACAUCUUCGGAUGCAGAGGAGACAGGUUUCGGUGGCGCGAUAGCGCCAACGUCCUCAACCUCCAAUGCAUCCUACCACAUGAUGAUGCCUGAAGAGCCUUGGUUUUUUG	-5.43
GACCAAUCUGCCCUCAGAGUUCGAGAACAUCUUCGGAUGCAGAGGAGGCAGGCUUCGGUGGCGCGAUAGCGCCAACGUCCUCAACAUCCAAUGCAUCCCACCACAUGAUGAUGCCUGAAGAGCCUUGGUUUUUUG	-2.3
GACCAAUCUGCCCUCAGAGUUCGAGAACAUCUUCGGAUGCAGAGGAGGCAGGCUUCGGUGGCGCGAUAGCGCGAACGUCCUCAACCUCCAAUGCAUCCCACCACAUGAUGAUUCCUGAAGAGCCUUGGUACUUUG	-3.02
GACCAAUCUGCCCUCAGAGUUCGAGAACAUCUUCGGAUGCAGAAUAGGCAGGCUUCGGUGGCGCGAUAGCGCCAACGUCCUCAACCUCCAAUGCAUCCCACCACAUGAUGAUGCCUGAAGAGCCUUGGUUUUUUG	-3.42
GACCAAUCUGCCCUCAGAGUUCGAGAACAUCUUCGGAUGCAGAAGAGGCAGGCUUCGGUGGCGUGAUAGCGCCAACGUCCUCAACCUCCAAUGCAUCCCACCACAUGAUGAUGCCUGAAGAGCCUUGGUUUUUUG	-2.89
GACCAAUCUGCCCUCAGAGUUCGAGAACAUCUUCGGAUGCAGAGCAGGCAGGCUUCGGUGGCGCGAUAGCGCCAACGUCCUCAACCUCCAAUGCAUCCCACCACAUGAUGAUGCCUGAAGAGCCUUGGUUUUUUG	-3.07
GACCAAUCUGCCCUCAGAGUUCGAGAACAUCUUCGGAUGCAGAGGAGGCAGGCUUCGGUGGCGCGAUAGCGCCAAGGUCCUCAACCUCUAAUGCAUCCCACCAAAUGAUGAUGCUUGAAGAGCCUUGGUUUUUUG	-5.63
GACCAAUCUGCCCUCAGAGUUCGAGAACAUCUUCGGAUGCAGAGGAGGCAGACUUCGGUGGCGCGAUAGCGCCAACGUCCUCAACCUCCAAUGCAUCCCACCACAUGAUGAUGCCUGAAAAGCCUUGGUUUUUUG	-1.57
GACCAAUCUGCCCUCAGAGUUCGAGAACAUCUUCGGAUGCAGAGGAGGCAGCCUUCGGUGGCGCGAUAGCGCCAACGACCUCAACCUCCAAUGCAUCCCACUACAUGAUGAUGCCUGAAGAGCUUUGGUUUUUUG	-2.94
GACCAAUCUGCCCUCAGAGUUCGAGAACAUCUUCCGAUGCAGAGGAGGCAGGCUUCGGUUGCGCGAUAGCGCCAACGUCCUCAACCUCCAAUGCAUCCCACCACAUGAUGAUGCCUGAAGAGCCUUGGUUUUUUG	-5.9
GACCAAUCUGCCCUCAGAGUUCGAGAACAUCUUCGGAUGCAGAGGAAGGAGGCUUCGGUGGCGCGAUAGCGCCAACGUCCUCAACCUCCAAUGCAUCCCACCACAUGAUGAUGCCUGAAGAGACGUGGUUUUUUG	-2.77
GACCAAUCUGCCCUCAGAGUUCGAGAACAUCUUCGAAUGCAGAGGAGGCAGGCUUCGGUGGCGCGAUAGCGCCAACGUCCUCAACCUCCAAUGCAUCCCACCACAUGAUGAUGCCUGAAGAACCUUCGUUUUUUU	-5.15
GACCAAUCUGCCCUCAGAGUUCGAGAACAUCUUCGGAUGCAGAGUAGGCCGGCUUCGGUGGCGCGAUAGCGCCAACACCCUCAUCCUCCAAUGCAUCCCACCACAUGAUGAUGCCUGAAGAGACUUGGUUUUUUG	-3.79
GACCAAUCUGCCCUCAGAGUUCGAGAACAUCUUCGGAUGCAGAGGAGGCAGGCUUCGGUGGCGCGAUAGCGCCAACGUCCUCAACCUCCAAUGCAUCCCACUACAUGAUGAUGCCUGAAGAGCCUUGGUUUUUUG	-2.92
GACCAAUCUGCCCUCAGAGUUCGAGAACAUCUUCGGAUGCAGAGGAGGCAGGCUUCGGUGGCGCGAUAGCGCCAACGUCCUCAACCUCCAAUGCAUCCCACAACAUGAUGAUGCCUGAAGAGCCUUGGUUUUUUG	-3.26
GACCAAUCUGCCCUCAGAGUUCGAGAACAUCUUCGGAUGCAGAGAAGGCAGGCUUCGGUGGCGCGAUAGCGCCAACGUCCUCAACCUCCAAUUCAUCCCACCACAUGAUGAUGCCUGAAGAGCCUUGGUUUUUUG	-4.76
GACCAAUCUGCCCUCAGAGUUCGAGAACAUCUUCAGAUGCAGAGGAGGCAGGCUUCGGUGACGCGAUAGCGCCAACGUCCUCAACCUCCAAUGCAUCCCACCACAUGAUGCUGCCUGAAGAGCCUUGGUUUUUUG	-5.53
GACCAAUCUGCCCUCAGAGUUCGAGAACAUCUUCUGAUGCAGAGGAGGCAGGCUUCGGUGGCGCGAUAGCGCCAACGUCCUCAACCUCCAAUGCAUCCCACCACAUGAUGAUGCCUGAAGAGCCUUGGUUUUUUG	-5.32

From the RNAGym collection of RNA variant scans (doi:10.1073/pnas.2313332121)
